The target of data set [1] is T1, DisA (Saccharopolyspora erythraea, UniProt A4F6V9).
T1 construct: recombinant His-tagged, pET28a(+), E. coli BL21(DE3); octamer
T1 sequence (A4F6V9 1-370): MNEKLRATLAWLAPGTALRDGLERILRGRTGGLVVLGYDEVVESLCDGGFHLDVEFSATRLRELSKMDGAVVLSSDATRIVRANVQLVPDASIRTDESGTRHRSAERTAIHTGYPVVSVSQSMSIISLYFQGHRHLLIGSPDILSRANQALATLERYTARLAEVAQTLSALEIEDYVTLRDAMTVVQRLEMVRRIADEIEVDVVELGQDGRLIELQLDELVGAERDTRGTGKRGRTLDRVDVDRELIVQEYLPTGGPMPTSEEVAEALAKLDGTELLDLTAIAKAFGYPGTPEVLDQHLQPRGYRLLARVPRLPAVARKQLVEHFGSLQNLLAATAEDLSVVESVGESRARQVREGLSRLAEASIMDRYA
The data set can be described thus: HPLC of c-di-AMP formed (DAC assay). The class given is biochemical. The settings on record: 100 mM ATP, 10 mM MgCl2, 0.1 M NaCl, 40 mM Tris pH 7.5, 10 uM enzyme.

For another data set, the target named is T2, DasR (Saccharopolyspora erythraea, UniProt A4F723).
T2 construct: gene SACE_0500; recombinant His-tagged, pET28a(+), E. coli BL21(DE3); dimer
T2 sequence (A4F723 1-251): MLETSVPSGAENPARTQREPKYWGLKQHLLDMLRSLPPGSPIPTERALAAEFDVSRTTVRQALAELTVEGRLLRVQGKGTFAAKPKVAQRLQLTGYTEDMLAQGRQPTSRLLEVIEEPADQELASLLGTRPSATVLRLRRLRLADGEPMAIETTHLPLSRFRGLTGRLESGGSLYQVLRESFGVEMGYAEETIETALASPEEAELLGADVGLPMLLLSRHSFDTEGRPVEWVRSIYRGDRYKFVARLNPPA
Put plainly: in vitro acetylation, anti-AcK Western blot. The class given is binding. The conditions noted are these: covalent; lysine acetylation; 10 mM AcP, 0-5 h, 37 C, 50 mM HEPES pH 7.5. (Immunoblotting shows a protein as a band on a membrane.)

The target of data set [2] is T1, DisA. Put plainly: DAC activity by HPLC after […] h preincubation; acetylation by anti-AcK blot and LC-MS/MS. The class given is biochemical. The settings on record: covalent; lysine acetylation (K66, K284); 10 mM AcP, 5 h, 37 C, 50 mM HEPES pH 7.5; substrate ATP.
Data set [3] addresses DNA integrity scanning protein (DisA), nonacetylated (Saccharopolyspora erythraea) (UniProt A4F6V9). The data set can be described thus: cross-linking; purified protein in 20 mM bicine pH 8.0, 150 mM NaCl, 10 mM MgCl2, 0.2% n-octyl-beta-D-glucopyranoside, 8% glycerol; 1 mM disuccinimidyl suberate, room temperature, 1 h; 15% SDS-PAGE, Coomassie blue; bands quantified by densitometry; self-association (DisA monomer and octamer, DasR monomer and dimer).

Data set [4] deals with DasR, nonacetylated (GntR-family global regulator) (Saccharopolyspora erythraea). Described as above.
A further data set concerns the target DasR K78Q variant. Put plainly: cross-linking, gel band densitometry (ImageJ). The conditions noted are these: parent: 100.
The target in another data set is DasR^K78R. The data set can be described thus: cross-linking, gel band densitometry (ImageJ). The conditions noted are these: parent: 100.
The test system of data set [5] is DasR WT (Saccharopolyspora erythraea NRRL2338). The data set can be described thus: BLI. The conditions noted are these: BLI: 10 mM HEPES pH 8.0, 2 mM MgCl2, 0.1 mM EDTA, 200 mM KCl (running buffer + 10 µg/mL BSA, 0.02% Tween-20), SA sensor, temperature not stated; EMSA: 5 nM …. (A gel shift assay detects complexes by their altered migration in electrophoresis.)

With `Nc1ncnc2c1ncn2[C@@H]1O[C@H](COP(=O)(O)OP(=O)(O)OP(=O)(O)O)[C@@H](O)[C@H]1O` [ATP], on DisA [1], the “HPLC of c-di-AMP formed (DAC assay)” value is “started by the addition of 100-mM ATP”. With `CC(=O)OP(=O)(O)O` [acetyl phosphate], on DasR, the “in vitro acetylation, anti-AcK Western blot” value is listed as “In vitro acetylation further confirmed that DasR was acetylated by AcP”. For the same molecule, the “DAC activity reduction (%)” value on DisA [2] is ~ 75%. The term stoichiometry N denotes a count of units in the complex or per binding partner. In turn, “DNA integrity scanning protein (DisA), nonacetylated (from UniProt A4F6V9 1-370) (enzyme)” yielded a stoichiometry N in data set [3] of 8. For “DasR, nonacetylated (GntR-family global regulator) (natural protein)”, the stoichiometry N in data set [4] is 2.

For “DasR, nonacetylated (GntR-family global regulator) K78Q”, in the data set with DasR K78Q variant, the other: relative monomer level (relative monomer level (WT = 100)) came out at 230 and the percent of parent (relative dimer level (WT = 100)) amounted to 42. As to “DasR, nonacetylated (GntR-family global regulator) K78R”, in the data set with DasR^K78R, the other: relative monomer level (relative monomer level (WT = 100)) was 140 and the percent of parent (relative dimer level (WT = 100)) is 89. As usually defined, the Kd is the concentration at which binding is half-saturated. As for disA promoter probe, the Kd in data set [5] amounted to 400 nM.

The values are drawn from paper PMC11323494, “A network of acetyl phosphate-dependent modification modulates c-di-AMP homeostasis in Actinobacteria” (mBio, 2024).
